Measurements: US12016898B2, “Compositions and uses of antimicrobial materials with tissue-compatible properties” (Amicrobe, Inc., priority 2012, dated 2024)

Experiments:
[1] = texture analysis profile (firmness, work of adhesion); format: physicochemical; conditions: 1% (w/w) polypeptide and 1% (w/w) HEC in water
Excerpt: FIGS. 20A and 20B show A) firmness values for mixtures of 1% solutions of synthetic cationic polypeptides with 1% hydroxyethyl cellulose (HEC, Natrosol HHX) in water (FIG. 20A); and B) work of adhesion values for mixtures of 1% solutions of copolypeptides with 1% hydroxyethyl cellulose (HEC, Natrosol HHX) in water (FIG. 20B).
Values for 1% (w/w) polypeptide in water. b. Values for 1% polypeptide/1% HEC (w/w) in water. c. Interaction parameter: ΔF=Fmix(poly/HEC)−(Fpoly+FHEC). Where Fmix(poly/HEC)=firmness of 1% polypeptide/1% HEC, Fpoly=firmness of 1% polypeptide solution, and FHEC=firmness of 1% HEC (Natrosol HHX) in water. Similar treatment of data was performed for the work of adhesion interaction parameter.
A texture analysis profile has been used to determine the effects of block copolypeptide composition and hydrophobic enantiopurity on the mechanical properties of the block copolypeptide/HEC mixtures (FIGS. 20A and 20B). […] This corresponds to an interaction parameter value of 14.45 mN and an overall increase of over 170% over what would be expected from the additive contributions of the individual components. […] Hydrophobic block length was also shown to be influential.

P. aeruginosa biofilms = experiment: in vitro P. aeruginosa biofilm assay; format: cell-based; conditions: 0.1-20 mg/mL, 24 hour contact time
[2] = system: S. epidermidis, P. aeruginosa (pig clinical isolate); experiment: open-wound porcine treatment model; format: in vivo; conditions: wounds contaminated, treated after 2 hrs, biopsied 4 hrs after treatment
Protocol: Each wound was contaminated with bacteria (S. epidermidis, P. aeruginosa (pig clinical isolate)). After 2 hrs, wounds were rinsed with saline and treated with 5 mL of test article or water. Test articles: K100(rac-L)20 (SEQ ID NO: 12) at 10, 2, 0.4 mg/mL, 10 mg/mL K100(rac-L)20 (SEQ ID NO: 12) and 30 mg/mL PEG 400 in water, and deionized water as a control. Gauze soaked in test article or water was placed on top of the wounds. Wounds were biopsied at 4 hrs after treatment.
Aqueous compositions that include mixtures of synthetic cationic polypeptides with two different polymers (polyethylene glycol 400 and hydroxyethyl cellulose) were both found to be effective in vivo. As depicted in FIG. 25, K100(rac-L)20 (SEQ ID NO: 12) was effective in an porcine open-wound treatment model alone and in combination with PEG 400. […] The aqueous compositions described herein can be used for any one or more treatments and/or applications, including but not limited to prevention of infections, treatment of infections, treatment for topical anti-infection, treatment for microbial decolonization, wound treatment, surgical site treatment, trauma treatment, burn treatment, treatment of diabetic foot ulcers, eye treatment, treatment of vaginal infections, treatment of urinary tract infections, hand sanitization, for coating prosthetic devices and/or implants, food preservation and solution preservation.

Row | Molecule | effect on adhesiveness / work of adhesion of mixing polypeptide with HEC [1] | effect on firmness of mixing polypeptide with HEC [1] | effectiveness against P. aeruginosa biofilms in vitro (P. aeruginosa biofilms) | effectiveness in porcine open-wound treatment model [2]
1 | K100: lysine homopolypeptide (K100, lysine homopolypeptide) KKKKKKKKKKKKKKKKKKKKKKKKKKKKKKKKKKKKKKKKKKKKKKKKKKKKKKKKKKKKKKKKKKKKKKKKKKKKKKKKKKKKKKKKKKKKKKKKKKKK | failed to enhance | failed to enhance | – | –
2 | K100(rac-L)20: synthetic cationic copolypeptide: lysine segment and shorter racemic hydrophobic leucine block (racemic leucine block; K100(rac-L)20; rac-L (101)..(120)) KKKKKKKKKKKKKKKKKKKKKKKKKKKKKKKKKKKKKKKKKKKKKKKKKKKKKKKKKKKKKKKKKKKKKKKKKKKKKKKKKKKKKKKKKKKKKKKKKKKKLLLLLLLLLLLLLLLLLLLL | no effect | no effect | effective | effective
3 | K100L20: synthetic cationic copolypeptide: lysine segment and leucine segment (K100L20) KKKKKKKKKKKKKKKKKKKKKKKKKKKKKKKKKKKKKKKKKKKKKKKKKKKKKKKKKKKKKKKKKKKKKKKKKKKKKKKKKKKKKKKKKKKKKKKKKKKKLLLLLLLLLLLLLLLLLLLL | antagonistic | increased firmness | – | –
